Test: soluble on expression in E. coli; label from the status in PepcDB or PDB records

Sequence	soluble on expression in E. coli
MGSSHHHHHHSSGLVPRGSHMASEVDKRREINNEHPLLMMPLYANGEEFNQGKYTFWGGDTLTGKWENIPDDLKPYTVIQLHPDDLPKRDGAARDFYEHMLEEAAKYVNPKTGKNEPIPVILTVYTAGNMPYYTSAHWLSTSWIDKMYQKYPNLHGIFSTANYWIWANDIENKAADYLKVSAKNGGYFIWAEQNNGSAIEKAFGKNGKIAFQKSVDKYWKNLIFMFKNTPAAEGNDSTTESYMKGLWLSNHTYQWGGLMDTWKWYETGKWKLFASGNIGKSQGDRQWLTEPESMLGEEALGVYLNGGVVYNFEHPAYTYGVNNKESLLFSEVIKEFFRYVIAHPAPSKEKVLEDTKVFIHGDYSNKGNGKFFVNVNTDREQTPLYMTGRYNVIPAIPGVLKTDKLKESVSSSRIQIKEITSPEFSSTQARKEYLNKLYPMNYEGDIFAQKLDNRWFVYNYKVNENVKQTGKLKFNSLEMNVEFEPHTYGIFERISNGLKVNLNNFRTNKDSLWSNAQDANQAKKLPQLTKKGAIKWIEEHYIKDTQFGEKRVTKIVLRGIDKLPTIHSLSGTNNSYDQPSLNFDQKNHMVTITINSNGNLEFELHF	soluble
MGSSHHHHHHSSGLVPRGSHMEELQKSIGHKPEPTDEEWELIKTVTEAHVATNAQGSHWKQKRKFLPEDIGQAPIVNAPEGGKVDLEAFSHFTKIITPAITRVVDFAKKLPMFCELPCEDQIILLKGCCMEIMSLRAAVRYDPESETLTLNGEMAVTRGQLKNGGLGVVSDAIFDLGMSLSSFNLDDTEVALLQAVLLMSSDRPGLACVERIEKYQDSFLLAFEHYINYRKHHVTHFWPKLLMKVTDLRMIGACHASRFLHMKVECPTELFPPLFLEVFED	soluble
MGSSHHHHHHSSGLVPRGSHMESAIGEHLQCPRTLTRRVPDTYTPPFPMWVGRADDALQQVVMGYLGVQFRDEDQRPAALQAMRDIVAGFDLPDGPAHHDLTHHIDNQGYENLIVVGYWKDVSSQHRWSTSTPIASWWESEDRLSDGLGFFREIVAPRAEQFETLYAFQEDLPGVGAVMDGISGEINEHGYWGSMRERFPISQTDWMQASGELRVIAGDPAVGGRVVVRGHDNIALIRSGQDWADAEADERSLYLDEILPTLQSGMDFLRDNGPAVGCYSNRFVRNIDIDGNFLDLSYNIGHWASLDQLERWSESHPTHLRIFTTFFRVAAGLSKLRLYHEVSVFDAADQLYEYINCHPGTGMLRDAVTIAEH	soluble
MGSSHHHHHHSSGLVPRGSHMGSEGGPALFQSDMTFKIFIDGEVNGQKFTIVADGSSKFPHGDFNVHAVCETGKLPMSWKPICHLIQYGEPFFARYPDGISHFAQECFPEGLSIDRTVRFENDGTMTSHHTYELDDTCVVSRITVNCDGFQPDGPIMRDQLVDILPNETHMFPHGPNAVRQLAFIGFTTADGGLMMGHFDSKMTFNGSRAIEIPGPHFVTIITKQMRDTSDKRDHVCQREVAYAHSVPRITSAIGSDED	soluble
MGSSHHHHHHSSGLVPRGSHMKKRIGIVGAGTAGLHLGLFLRQHDVDVTVYTDRKPDEYSGLRLLNTVAHNAVTVQREVALDVNEWPSEEFGYFGHYYYVGGPQPMRFYGDLKAPSRAVDYRLYQPMLMRALEARGGKFCYDAVSAEDLEGLSEQYDLLVVCTGKYALGKVFEKQSENSPFEKPQRALCVGLFKGIKEAPIRAVTMSFSPGHGELIEIPTLSFNGMSTALVLENHIGSDLEVLAHTKYDDDPRAFLDLMLEKLGKHHPSVAERIDPAEFDLANSSLDILQGGVVPAFRDGHATLNNGKTIIGLGDIQATVDPVLGQGANMASYAAWILGEEILAHSVYDLRFSEHLERRRQDRVLCATRWTNFTLSALSALPPEFLAFLQILSQSREMADEFTDNFNYPERQWDRFSSPERIGQWCSQFA	soluble
MGSSHHHHHHSSGLVPRGSHMLELRLVQGSLLKKVLESIKDLVNDANFDCSSTGFSLQAMDSSHVALVSLLLRSEGFEHYRCDRNLSMGMNLGNMSKMLKCAGNDDIITIKADDGGDTVTFMFESPTQDKIADFEMKLMDIDSEHLGIPDAEYHSIVRMPSNEFSRICKDLSSIGDTVVISVTKEGVKFSTAGDIGTANIVLRQNTTVDKPEDAIVIEMKEPVSLSFALRYMNSFTKATPLSDTVTISLSSELPVVVEYKVAEMGYIRYYLAPKIE	soluble
MGSSHHHHHHSSGLVPRGSHMMIVIMDNGGQYVHRIWRTLRYLGVETKIIPNTTPLEEIKAMNPKGIIFSGGPSLENTGNCEKVLEHYDEFNVPILGICLGHQLIAKFFGGKVGRGEKAEYSLVEIEIIDEDEIFKGLPKRLKVWESHMDEVKELPPKFKILARSETCPIEAMKHEELPIYGVQFHPEVAHTEKGEEILRNFAKLCGEL	soluble
MGSSHHHHHHSSGLVPRGSHMRPHGDTAKKPIIGILMQKCRNKVMKNYGRYYIAASYVKYLESAGARVVPVRLDLTEKDYEILFKSINGILFPGGSVDLRRSDYAKVAKIFYNLSIQSFDDGDYFPVWGTCLGFEELSLLISGECLLTATDTVDVAMPLNFTGGQLHSRMFQNFPTELLLSLAVEPLTANFHKWSLSVKNFTMNEKLKKFFNVLTTNTDGKIEFISTMEGYKYPVYGVQWHPEKAPYEWKNLDGISHAPNAVKTAFYLAEFFVNEARKNNHHFKSESEEEKALIYQFSPIYTGNISSFQQCYIFD	soluble
MGSSHHHHHHSSGLVPRGSHMSGALKENSGKPSEVEYTHFKDLQALEMERGRLYETIVVTWDDSMVGNAAPIGVLCTGDDTVTLYLYQGTRTVENVLNNGRFTVNVTLDPLIFTDSTLGDLEEDMFSHYRDFLHLRGADAFFTAEVVSVKKLVKRDRFGESELHVVKARAGDVMRAESFRMALNRGIYAVIESLIAYTRAEFSDPLVLRERIAEMNRVARKVGGPREKEAMRRIIQALESKIS	soluble
MGSSHHHHHHSSGLVPRGSHMTATLGINGFGRIGRLVLRACMERNDITVVAINDPFMDVEYMAYLLKYDSVHGNFNGTVEVSGKDLCINGKVVKVFQAKDPAEIPWGASGAQIVCESTGVFTTEEKASLHLKGGAKKVIISAPPKDNVPMYVMGVNNTEYDPSKFNVISNASSTTNCLAPLAKIINDKFGIVEGLMTTVHSLTANQLTVDGPSKGGKDWRAGRCAGNNIIPASTGAAKAVGKVIPALNGKLTGMAIRVPTPDVSVVDLTCKLAKPASIEEIYQAVKEASNGPMKGIMGYTSDDVVSTDFIGCKYSSILDKNACIALNDSFVKLISWYDNESGYSNRLVDLAVYVASRGL	soluble
MGSSHHHHHHSSGLVPRGSHMVAFLRGDRRKENSDNFRTRNSILGDIINSSPATVGKAQYLTYLAQPIEPSGNYSTFAEAQKTRAPRVYVGANDGMLHGFDTDGNETFAFIPSAVFEKMHKLTARGYQGGAHQFYVDGSPVVADAFFGGAWHTVLIGSLRAGGKGLFALDVTDPANIKLLWEIGVDQEPDLGYSFPKPTVARLHNGKWAVVTGNGYSSMNDKAALLIIDMETGAITRKLEVTGRTGVPNGLSSPRLADNNSDGVADYAYAGDLQGNLWRFDLIAGKVNQDDPFSRANDGPAVASSFRVSFGGQPLYSAVDSAGAAQAITAAPSLVRHPTRKGYIVIFGTGKYFENADARADTSRAQTLYGIWDQQTKGEAAGSTPRLTRGNLQQQTLDLQADSTFASTARTIRIASQNPVNWLNNDGSTKQSGWYLDFMVNGTLKGEMLIEDMIAIGQVVLLQTITPNDDPCADGASNWTYGLDPYTGGRTSFTVFDLARQGVVDSKSDYSYNKQNVAVSGTEQKGLGGLTLSTNEQGNPEVCSSGECLTVNPGPNTRGRQNWRPIEGKN	soluble
MGSSHHHHHHSSGLVPRGSMAQGLIEVERKFLPGPGTEERLQELGGTLEYRVTFRDTYYDTPELSLMQADHWLRRREDSGWELKCPGAAGVLGPHTEYKELTAEPTIVAQLCKVLRADGLGAGDVAAVLGPLGLQEVASFVTKRSAWKLVLLGADEEEPQLRVDLDTADFGYAVGEVEALVHEEAEVPTALEKIHRLSSMLGVPAQETAPAKLIVYLQRFRPQDYQRLLEVNSS	soluble
MGSSHHHHHHSSGLVPRGSTKVKYVDKIHIGNYEIDAWYFSPFPEDYGKQPKLWLCEYCLKYMKYEKSYRFHLGQCQWRQPPGKEIYRKSNISVHEVDGKDHKIYCQNLCLLAKLFLDHKTLYFDVEPFVFYILTEVDRQGAHIVGYFSKEKESPDGNNVACILTLPPYQRRGYGKFLIAFSYELSKLESTVGSPEKPLSDLGKLSYRSYWSWVLLENLRDFRGTLSIKDLSQMTSITQNDIISTLQSLNMVKYWKGQHVICVTPKLVEEHLKSAQYKKPPITVDSVCLKWAPPK	soluble
